Measurements published in paper PMC12049912 (2025).
Values belong to the binder of their own block, whether it stands above or below them.

Key:
[1] = biological target: T1, p68 S551F (mp68; DDX5 S551F) peptide on H-2Kb (mouse); experiment: multimer staining
T1 peptide: SNFVFAGI

[2] = biological target: T1, p68 S551F (mp68; DDX5 S551F) peptide on …; experiment: cytokine release

- binding result [1]: no recognition
B1: T3-3 (TCR)
alpha TRAV13-4 TRAJ30 CDR3: CAMEHDTNAYKVIF
beta TRBV12-1 TRBJ2-1 CDR3: CASSLRGYAEQFF

- binding result [1]: no recognition
B2: T1-3 (TCR)
alpha TRAV19 TRAJ40 CDR3: CAAGGFNTGNYKYVF
beta TRBV19 TRBJ2-7 CDR3: CASSIRQGSGEQYF

- binding result [1]: no recognition
B3: T3-3/2 (TCR)
alpha TRAV19 TRAJ40 CDR3: CAAGGVNTGNYKYVF
beta TRBV12-1 TRBJ2-1 CDR3: CASSLRGYAEQFF

- binding result [2]: recognises
B4: 1D9 (TCR)
alpha TRAV1 TRAJ30 CDR3: CAVRSDTNAYKVIF
beta TRBV19 TRBJ2-7 CDR3: CASSKRLSSYEQYF
